Experiment [1] deals with T1, PRLR-expressing cells (T47D) (Homo sapiens, UniProt P16471).
T1 construct: a native PRLR expressing cell line (T47D); endogenous in cells; host or cells: T47D
T1 sequence (P16471 25-622): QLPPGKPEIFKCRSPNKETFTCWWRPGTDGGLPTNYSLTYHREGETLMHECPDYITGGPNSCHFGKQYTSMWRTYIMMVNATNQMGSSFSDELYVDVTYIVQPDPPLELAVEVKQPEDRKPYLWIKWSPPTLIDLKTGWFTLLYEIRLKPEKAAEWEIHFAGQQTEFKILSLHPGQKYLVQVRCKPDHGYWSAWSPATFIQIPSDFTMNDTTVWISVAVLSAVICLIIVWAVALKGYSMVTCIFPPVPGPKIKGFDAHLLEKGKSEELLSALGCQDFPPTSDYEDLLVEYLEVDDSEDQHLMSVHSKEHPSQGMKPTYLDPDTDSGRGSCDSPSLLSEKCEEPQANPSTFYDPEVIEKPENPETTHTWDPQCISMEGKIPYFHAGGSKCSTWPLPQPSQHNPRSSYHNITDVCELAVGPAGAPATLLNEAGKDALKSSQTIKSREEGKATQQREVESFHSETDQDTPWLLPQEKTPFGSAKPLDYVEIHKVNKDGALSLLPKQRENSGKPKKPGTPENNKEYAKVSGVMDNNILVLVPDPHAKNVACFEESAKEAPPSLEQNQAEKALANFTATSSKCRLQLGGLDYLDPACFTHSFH
As to the kind of experiment: Antibody binding and internalization by PRLR-expressing cells (imaging). It is filed as cell-based. The note with it: [mAb] (0.67 nM).

Experiment [2] deals with T2, hPRLR.mmh (soluble monomeric human PRLR) (Homo sapiens, UniProt P16471).
T2 construct: soluble monomeric (hPRLR.mmh); mmh (myc-myc-hexahistidine)
T2 sequence (P16471 with tags, fused parts or gaps): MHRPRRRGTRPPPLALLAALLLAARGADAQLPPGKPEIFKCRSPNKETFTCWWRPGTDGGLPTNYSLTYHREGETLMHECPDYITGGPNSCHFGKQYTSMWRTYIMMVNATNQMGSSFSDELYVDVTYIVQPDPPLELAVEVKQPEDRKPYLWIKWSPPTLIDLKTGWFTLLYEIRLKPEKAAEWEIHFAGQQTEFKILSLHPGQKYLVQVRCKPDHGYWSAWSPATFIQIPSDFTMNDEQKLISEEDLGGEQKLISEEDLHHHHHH
As to the kind of experiment: Surface plasmon resonance (Biacore T200), mAb-capture format. The note with it: antibody-capture format, analyte hPRLR.mmh. The format is binding. The procedure, abridged: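 Antibodies (human IgG1 Fc) captured on anti-human Fc surface; monomeric hPRLR.mmh or mfPRLR.mmh, or dimeric hPRLR.mFc, injected as analyte on Biacore T200. ka and kd from 1:1 binding model fit.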
(Surface plasmon resonance follows binding to a sensor surface in real time, without labels.)

The test system of experiment [3] is HEK293/hPRLR/STAT5-Luc cells (human PRLR). As to the kind of experiment: STAT5-Luc luciferase reporter assay, blocking of PRL-mediated receptor activation. The format is cell-based. The procedure, abridged: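 Engineered HEK293 line stably carrying human PRLR and a STAT5-dependent luciferase reporter; antibodies (100 nM to 24 pM) incubated 6 hr at 37° C with 5 nM constant PRL, luminescence read. IC50 from four-parameter fit of 8-point curves; percent blocking at highest antibody dose; agonism without ligand also tested.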

Another experiment concerns HEK293/mfPRLR. The experiment in a line: FACS cell surface binding. More on the design: species or system macaca fascicularis. A digest of the protocol:
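HEK293 lines stably expressing HA-tagged human, cynomolgus or mouse PRLR, native-expressing T47D and parental HEK293 tested by flow cytometry. Cells (1×10^5) stained with primary antibody 30 min on ice, then PE anti-human secondary; MFI expressed as fold over isotype control.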

The results in this text go back to patent publication US9688764B2, “Methods of treating breast cancer by administering anti-human prolactin receptor (PRLR) antibodies” (REGENERON PHARMACEUTICALS, INC., priority 2013, dated 2017).

Chain of HEK293/mfPRLR (as listed by the source): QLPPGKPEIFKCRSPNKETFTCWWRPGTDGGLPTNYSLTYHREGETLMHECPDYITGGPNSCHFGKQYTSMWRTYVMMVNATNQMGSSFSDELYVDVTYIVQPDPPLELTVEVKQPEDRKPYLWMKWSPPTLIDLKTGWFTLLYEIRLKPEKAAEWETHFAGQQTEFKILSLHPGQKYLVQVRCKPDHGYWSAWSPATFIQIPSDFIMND

B1: H1H6953N: human IgG1 Fc form of H1M6953N; anti-PRLR; HCVR/LCVR SEQ ID NOs 274/282 (antibody, V domains shown)
VH: EVQLLESGGGLVQPGGTLRLSCAASGFTFSAYAMSWVRQAPGKGLEWVSSINVRAGDTYYADSVKGRFTISRDNSKNTLFLLMNSLRAEDTAAYYCAKARYSSNWGFDFWGQGTLVTVSS
VL: DIVMTQSPDSLTVSLGARTTINCQSSQTILHSSNNHNYLAWYQQKPGLPPKLLIYWSSTRESGVPDRFSGSGSGTDFTLTISSLQAEDVAIYYCQQYSNTPYTFGQGTKLEIN
modifications: human IgG1 Fc
With B1, the “% Internalization relative to Control I” value in experiment [1] (alexa488 intensity in intracellular vesicles, 1 h at 37° C.) turned out to be 153.9%. Also, the “% Total Binding relative to Control I” value in experiment [1] (whole cell alexa488 intensity at 37° C.) was found to be 164.2%. Further, the Kd in experiment [2] (25° C.) is 0.268 nM; in experiment [2] (37° C.), 1.11 nM. In addition, the T½ in experiment [2] (25° C.) stood at 54.5 min; in experiment [2] (37° C.), 9.4 min. The molecule also displayed an IC50 in experiment [3] (5 nM constant PRL, 6 hr at 37° C.) of 0.105 nM. Also, the “Percent Blocking at 100 nM Antibody” value in experiment [3] (100 nM antibody, 5 nM PRL) amounted to 100%. For the same molecule, the “FACS Cell Binding (Fold Above Background)” value in the experiment on HEK293/mfPRLR is listed as 29 Fold Above Background.

As a reminder, the Kd is a measure of binding affinity in units of concentration. A high value points to weaker binding. In general, IC50 refers to the concentration needed to halve the response being measured.
